Data from patent publication US10975360B2, “Process for the modification of alkanes, fatty acids and fatty alcohols” (priority 2016, dated 2021).

B1: CYP505Ao: CYP505 cytochrome P450 monooxygenase from Aspergillus oryzae, SEQ ID No 9 (protein, listed as Aspergillus oryzae)
chain: MRQNDNEKQICPIPGPQGLPFLGNILDIDLDNGTMSTLKIAKTYYPIFKFTFAGETSIVINSVALLSELCDETRFHKHVSFGLELLRSGTHDGLFTAYDHEKNWGLAHRLLVPAFGPLRIREMFPQMHDIAQQLCLKWQRYGPRRPLNLVDDFTRTTLDTIALCAMGYRFNSFYSEGDFHPFIKSMVRFLKEAETQATLPSFISNLRVRAKRRTQLDIDLMRTVCREIVTERRQTNLDHKNDLLDTMLTSRDSLSGDALSDESIIDNILTFLVAGHETTSGLLSFAVYYLLTTPDAMAKAAHEVDDVVGDQELTIEHLSMLKYLNAILRETLRLMPTAPGFSVTPYKPEIIGGKYEVKPGDSLDVFLAAVHRDPAVYGSDADEFRPERMFDEHFQKLPANSWKPFGNGKRSCIGRAFAWQEALMILALILQSFSLDLVDRGYTLKLKESLTIKPDNLWAYATPRPGRNVLHARLALQTNSTHPEGLMSLKHETVESQPATILYGSNTGTCEALAHRLAIEMSSKGRFVCKVQPMDEIEHRRLPRGQPVIIVTGSYDGRPPENARHFVKWLQSLEGNDLEGIQYAVFGCGLPGHHDWSTTFYKIPTLIDTIMAEHGGARLAPRGSADTAEDDPFVELESWSERRVWPGLEAAFDLVRHNSSDGTGKSTRITIRSPYTLRAAHETAVVHQVRVLTSAETTKKVHVELALPDTINYRPGDHLAILPLNSRQSVQRVLSLFQIGSDTILYITSSSATSLPTDTPISAHDLLSGYVELNQVATPTSLRSLAAKATDEKTAEYLEALATDRYTTEVRGNHLSLLDILESYSVPSIEIQHYIQMLPPLRPRQYTISSSPRLNRGQASLTVSVMERADIGGPRNCAGVASNYLASCTPGSILRVSLRHANPDFRLPDESCSHPIIMVAAGSGIAPFRAFVQERSVRQKEGIILPPAFLFFGCRRADLDDLYREELDAFEEQGVVTLFRAFSRAQSESHGCKYVQDLLWMERVRVKTLWGQDAKVFVCGSVRMNEGVKAIISKIVSPTPTEELARRYIAETFI
B2: CYP505Hv: CYP505 cytochrome P450 monooxygenase from Hypocrea virens, SEQ ID No 10 (protein, listed as Hypocrea virens)
chain: MKPAKNPNLVEIPKPKGLPVIGSLHHIDLESPLFSLIELIQPLGPICQLTFGSELNIFVSSIELLNELCDESRFQKIVTAELEKLRHVVHDGLFTARNEERNWEIAHRILMPVFGTIKIREMFPEMKDLAQQLCLKWARYGEEYVIDVTADFTRLTLDTLALCTMGFRFNSFHNGTVLHPFVDSMVRTLKEASVQAALPNFINSLRKKSWRRYEKDTAFMRKLCQDIIDKRKSQTDTDSHDLLAALLRGRDPKTGEGLSDDSIIDNMLTFLIAGHETTSGLLSFAMYYLLANPQTMEKARQEVDEVSQGSPIAVEHLSKLPYLNAVLKETLRLQPTAPGFILSSPKDEIIGGKYLIPANIPIGVLLHMVHLDKAVYGEDAAEFKPERMLDENFNKLPPNSWKPFGNGMRGCIGRAFATQEALLIVAMLLQSFTFEMADPGYKLKIKETLTVKPDNFRMKAKLRRGGTATDFQRELQSLGSVGAKLSSTPSVTSAQTGGGDKKPLTILYGSNSGTCEALAYRLASDATLHGFYARKIAPLNAARNSLPKSEPVIILAASYDGLPSDNAEEFFDWLNTAEKDSLKGVSYSVFGCGHRDWVATFQRVPILIDDLLQRAGAERFANRGLADSAVMDLFVELEKWTTDSVWPAISQTDGKQDNDGEGKLISSLLKVEFSQPRQLQQYSHLVEATVMESRSLTTPSAIGKKMHVDIQLPSGVSYHPGDHLLVLPVNPIRNVKRVLSRFHLTWDTIVRASGNESVRIPIETAMTVHELLSSYFELAQPATPRDIRVLAAAAEDEATKQVLNNLATTSYLEDIQEKKTSLLDLLEKFPEISIAFGTYLTLLPSLRLRTYSISSSPSWNSSRATLTLSVLDEPATTPGSKRYLGVASNHLAGLTPGDLIHVATRPVKGIFQMPADLSKAPTIMIAAGAGLAPFRGFIQERAYQQQNGVQLAPAALFFGCRSSHDDLYRSELDAFESSGVIRVFRAYSREDVGSKSNTRKGYVQDSLQAEKDVFVQLWNAGAKVYVCGSVKMASQVKDLVANLVYTAEPMDAQKEFTPQEWFKRFEKTRYAAEIFT
B3: CYP505Om: CYP505 cytochrome P450 monooxygenase from Oidiodendron maius, SEQ ID No 11 (protein, listed as Oidiodendron maius)
chain: MTKKNHALIPIPGPSVWPLLGNLFDIDTEHGLASVLEMGRSYGDIFQLVLGGNKLVFLQTHALFDEVCDESRFCKVVVSGLGNLRAGVNDGLFTAHDGEHNWGVAHRIIMPIFGPIKIRETLGGMKDVCQELSLKWARYGPDHRIDIAGDLTRLTLDTIAFCTMGYRFNSFYRNSDVHPFVKSMVGFLREADKSSMIPEYLNAFRWKARRSFLGDIASMREMSMMILNLRRGNPSDRDDLLNALLHGRDPKTGEGMSDESIINNLITFLVAGHETTSGALSFVFYYLLTNPESLKNAREEVDRVIGAGNITADHLSKLPYIDAVLREALRLNPTGPAITLGAREDTTLGGKYAVKKGEPVLCMFHNIHRDKKVYGEDADEWKPERMMDENFNKLPKNAWKPFGNGTRGCIGRAFAWQESQLVIASILQNFDLTLDNPDYKLEIVETLTIKPGNFYVRAKLRSGRTPRELCGFSNPISTNIQIKNGTIAPANDGQVGNSTPVTILYGSNSGTCEALAHRLARDAPSYGYSVTTVATLDSVIGILPRAKDELVVIITCSYDGLPADNAVRFCNWLKTLDEDALGGMPFAVFACGHHDWAKTFYKVPIMIDELLARAGAHRVAQMGKANSAVSDMFSDLENWEDEHLWSSSSAAGNETVDNVARTEVKQDITITNPRARALHHNAVECIVSETHKLSESGSALKYHVEIQLPANMKYAPGDHLSVLPINPRQNVRRALARFHLAGDSVLSVARIGHMGTLGQETLSAFDVFASYVELSQPATRRNIATLLSVTPEGEGRYELAELGGAAFESQIRDMRVSVLDLLERYKAIKLCVGAFIDMLPPLRVRTYSISSSALWKPSHASLTISVLAQPALSGQGSFLGVASNFLADLVPGDAVHFTIRPCKKQFHLPDDASAHPIIMVAAGSGIAPFRGFIQDRALQRRNGVQLQPAILFFGCRGSKQDDLYRQELDEFEAEGVVSVRRAFSGEETVSISESRMYVQDRMWADRAEVIQLWNLGAKIYVCGGINMADGVREIFNEIVGPTEVDGKRGAESLNKLSEETMSARYVAEIFSQT
B4: CYP505St: CYP505 cytochrome P450 monooxygenase from Setosphaeria turcica, Seq ID 12 in Table 2 (protein, listed as Setosphaeria turcica)
chain: MSAPNRQLVPIPGPSALPIVGNTFDLDLDASIQSLVNMFEEYGPVFQLTIAGHKQIFVGNVQLTNEVCDESRFCKIVFSGLELLRSAVHDGLFTAHEGERNWDIAHRILMPVFGPTKIRGMFDQMNDIAQQLCLKWGRYGPTFPIEVTEDFTRLTLDTIALCAMGYRFNSFYRDNMHPFVDRMNRFLKDTNTQSGLPDLFNSLWLHAKKRNKEDIKAMREFSQEVVDQRRQNPVDADDLLNALLHQTDPKTGEGLSDSSIIDNMITFLVAGHETTSGLLSFAFYYMLKNPWAMEKAQQEVDNVIGTERVTVNHLSKLEYLNAILRETLRLMPTAPAFTVGALKDDVIGGKYAVKKGEPINPILQAVHCDKEVYGPDATEWKPERMLEEGFHKLPANSWKPFGNGKRGCIGRAFAWQEALLVVAVLLQSFTFTEDDPSYQLRIREALTIKPDGFKIRATLREHKTTAGMVPESVQSLRQAQKSGKPGNSKSSANESMVGQGNGRSVSIFYGSNSGSCESLANLLASDCAKYGFSVQTTDALDAARENFTSNQIVLIVASTYDGKPADNATEFVNWLKSLTGEPLKGVSYAVFGCGHHDWATTFYKIPILIDELLEQRGAQRVAPRGAANAAVSDLFSDLEKWEESILWPALGLTPALLESQGDTQPRLTISFQRPYTQRKEFLEATVTSASELTTSASPSRKCHMELQLPQDMTYNTGDYLAVLPLNPLSNVQRALSRFHLAWDSVLVIEATGPTQLPTATPISVADLFGAYVELSQPATPRNIRALAGAASDEPTKQALLKLAEDDFATQVRDKRLSVLDLLGQYESVALPVEAFIEMLLPLRPRTYSISSAPQWNPSHASITWSIIDTVSWSGHGRFLGVASNHLYDLSPGAVVRVSVRRSNPAFHPPQDPNSYPIIMIASGSGLAPFRGFIQERALQQKAGMTLAPALLFFGCRGRDDDLHRAEMDDFEKSGVVRVMRAYSKAPNEPDAFGCAYIQERVWSERKEFRELWNRGATVFVCGGTKMSEAIKDVFIKIAYGNAGQDDNKSSRDWFASLDPHRYVAEVFN

Type: cell-based, P. pastoris
Protocol: Precultures of P. pastoris transformants were prepared in buffered complex glycerol media (BMGY). BMGY contained: 10 g/l yeast extract, 20 g/l peptone, 3.4 g/l yeast nitrogen base, 10 g/l ammonium sulfate, 100 mM potassium phosphate (pH 6), 0.4 mg/l biotin and 1% (v/v) glycerol. Erlenmeyer flasks (500 ml) containing 50 ml BMGY media were inoculated with single colonies of 24 h old YPD-agar cultures of P. pastoris KM71 mut^s3/CYP505E3 and incubated at 30° C. and 225 rpm for 24 h. The cultures were harvested using pre-weighed centrifuge tubes at 3000 g for 5 min and stored on ice until further use.
The main cultures for expression were prepared in buffered complex methanol media (BMMY) containing 10 g/l yeast extract, 20 g/l peptone, 3.4 g/l yeast nitrogen base, 10 g/l ammonium sulfate, 100 mM potassium phosphate (pH 6), 0.4 mg/l biotin and 0.5 or 1% (v/v) methanol. Harvested cells from precultures were resuspended in BMMY media to final concentration of 1 g WC per 40 ml (appx. 25 g/l). The resuspended cultures (100 ml) were transferred to 500 ml Erlenmeyer flasks and incubated at 25° C. and 225 rpm for 24 h. The cultures were then harvested at 3000 g for 5 min using pre-weighed centrifuge tubes.
Different transformants of Pichia pastoris KM71 harbouring the CYP505 genes for SEQ ID Nos 1 to 7 and 9 to 12 were grown and harvested as described above. The harvested cells were resuspended to give 1 g wet cell weight in 40 ml MOPS buffer (200 mM, 100 mM glucose, 100 mM glycerol, pH 8) and 1 ml aliquots of these cell suspensions were transferred to 40 ml amber vials. Dodecane, 1-dodecanol and 1-tetradecanol were added neat to these cell suspensions to give final concentrations of 200 mM in the case of the alcohols and 1 M in the case of dodecane while in the case of dodecanoic acid 20 μl of a 500 mM stock solution (in DMSO) was added to give a final concentration of 10 mM. Transformants harbouring the CYP505 genes for SEQ ID Nos 1 to 4 were tested for the biotransformation of 1-dodecanol, 1-tetradecanol, dodecanoic acid, tetradecanoic acid and dodecane, while those harbouring the CYP505 genes for SEQ ID Nos 5 to 7 and 9 to 12 were only tested for the biotransformation of 1-dodecanol and dodecanoic acid. The biotransformations were incubated at 25° C. and 225 rpm for 24 h. Extractions were performed using ethyl acetate (500 μl×2). The extracts were analyzed using GC/MS.

ω-7 hydroxylase activity C12FA, −:
B1
B2
B3
B4

ω-7 hydroxylase activity C12ol, −:
B1
B2
B3
B4
